Reference: US6632626

Columns and labels:
[1] = target: rat brain farnesyl:protein transferase (rat) (UniProt Q04631); assay: cell-based or functional assay

CVIM with glycine at the A2 position (peptide)
concentration giving 50% inhibition (farnesyl transfer to p21^H-ras) [1]: 8 µM

CVIM with glutamic acid at the A2 position (peptide)
fold decline of affinity for the enzyme [1]: > 50 fold

rat brain farnesyl:protein transferase
farnesylation of the peptide (substrate activity) (biotinylated KTSCVIM): The studies with the biotinyated heptapeptide ( FIG. 12B ) confirm that at least some of the short peptides act as substrates for the enzyme

CVIM with lysine at the A2 position (peptide)
fold decline of affinity for the enzyme [1]: > 50 fold
fold decrease of affinity for the enzyme against CVIM [1]: > 30 fold
